The numbers were not newly measured in publication PMC5013049, which cites them from elsewhere.

The target of series [1] is ExsE (Pseudomonas aeruginosa) (UniProt Q9I322). Kind of series: ITC. (In general: ITC needs no label: the signal is the heat of the interaction.)
Series [2] addresses ExsD (Pseudomonas aeruginosa) (UniProt Q9I321). Put plainly: ITC.
Sequence of UniProt Q9I321 (Q9I321 whole entry): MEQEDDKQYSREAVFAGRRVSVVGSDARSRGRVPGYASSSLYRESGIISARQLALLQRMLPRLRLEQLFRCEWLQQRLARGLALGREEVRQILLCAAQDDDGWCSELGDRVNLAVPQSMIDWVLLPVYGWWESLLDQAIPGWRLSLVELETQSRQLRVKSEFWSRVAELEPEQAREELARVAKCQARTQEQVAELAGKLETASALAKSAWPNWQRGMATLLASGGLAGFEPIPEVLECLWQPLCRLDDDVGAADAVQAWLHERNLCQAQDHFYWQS

Sequence of UniProt Q9I322 (Q9I322 whole entry): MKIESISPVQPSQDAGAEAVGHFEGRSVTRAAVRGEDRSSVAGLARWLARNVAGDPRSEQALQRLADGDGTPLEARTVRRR

By Kd is commonly meant the constant that tells how readily two partners part at equilibrium. On to ExsC (from UniProt P26995), for which the Kd is 1 nM in series [1] and 18 nM in series [2].
